These results are taken from the Human Domainome abundance scans (Beltran et al. 2025).

± gives the uncertainty stated by the source.

B1: Zinc finger homeobox protein 3, residues 2643 to 2698; numbered along this chain, Q15911 (parent)
chain: RLRTTITPEQLEILYQKYLLDSNPTRKMLDHIAHEVGLKKRVVQVWFQNTRARERK

This data set covers variants of B1. The data set is described as follows: abundance fitness (aPCA) (normalised: wild type 0, dead -1); higher = more abundant; growth selection in yeast, the domain comes from the species named. To be noted: Homo sapiens.
As for RLRTTITPEQLEILQQKYLLDSNPTRKMLDHIAHEVGLKKRVVQVWFQNTRARERK [Y15Q], the abundance fitness is 0.244 ± 0.1.
RLRTTITPEQLEILIQKYLLDSNPTRKMLDHIAHEVGLKKRVVQVWFQNTRARERK [Y15I]: the abundance fitness is 0.183 ± 0.22.
Then RLRTTITPEQLEILMQKYLLDSNPTRKMLDHIAHEVGLKKRVVQVWFQNTRARERK [Y15M], with -0.049 ± 0.11; and RLRTTITPEQLEILHQKYLLDSNPTRKMLDHIAHEVGLKKRVVQVWFQNTRARERK [Y15H], with -0.152 ± 0.16.
The figure for RLRTTITPEQLEILVQKYLLDSNPTRKMLDHIAHEVGLKKRVVQVWFQNTRARERK [Y15V] is -0.123 ± 0.081; for RLRTTITPEQLEILKQKYLLDSNPTRKMLDHIAHEVGLKKRVVQVWFQNTRARERK [Y15K] it is 0.051 ± 0.12; for RLRTTITPEQLEILFQKYLLDSNPTRKMLDHIAHEVGLKKRVVQVWFQNTRARERK [Y15F] it is -0.444 ± 0.17.
Then RLRTTITPEQLEILCQKYLLDSNPTRKMLDHIAHEVGLKKRVVQVWFQNTRARERK [Y15C], with -0.368 ± 0.13; and RLRTTITPEQLEILSQKYLLDSNPTRKMLDHIAHEVGLKKRVVQVWFQNTRARERK [Y15S], with 0.138 ± 0.094; and RLRTTITPEQLEILTQKYLLDSNPTRKMLDHIAHEVGLKKRVVQVWFQNTRARERK [Y15T], with -0.007 ± 0.12.
For the variant RLRTTITPEQLEILLQKYLLDSNPTRKMLDHIAHEVGLKKRVVQVWFQNTRARERK [Y15L], the abundance fitness is 0.016 ± 0.09.
As to RLRTTITPEQLEILGQKYLLDSNPTRKMLDHIAHEVGLKKRVVQVWFQNTRARERK [Y15G], the abundance fitness is 0.126 ± 0.075.
Then RLRTTITPEQLEILRQKYLLDSNPTRKMLDHIAHEVGLKKRVVQVWFQNTRARERK [Y15R], with 0.032 ± 0.074; and RLRTTITPEQLEIMYQKYLLDSNPTRKMLDHIAHEVGLKKRVVQVWFQNTRARERK [L14M], with -0.17 ± 0.11; and RLRTTITPEQLEITYQKYLLDSNPTRKMLDHIAHEVGLKKRVVQVWFQNTRARERK [L14T], with -1.04 ± 0.17.
The figure for RLRTTITPEQLEIWYQKYLLDSNPTRKMLDHIAHEVGLKKRVVQVWFQNTRARERK [L14W] is -0.758 ± 0.11; for RLRTTITPEQLEIAYQKYLLDSNPTRKMLDHIAHEVGLKKRVVQVWFQNTRARERK [L14A] it is -0.908 ± 0.13.
The figure for RLRTTITPEQLEIQYQKYLLDSNPTRKMLDHIAHEVGLKKRVVQVWFQNTRARERK [L14Q] is -0.895 ± 0.14.
As for RLRTTITPEQLEIVYQKYLLDSNPTRKMLDHIAHEVGLKKRVVQVWFQNTRARERK [L14V], the abundance fitness was -0.926 ± 0.12.
Turning to RLRTTITPEQLEINYQKYLLDSNPTRKMLDHIAHEVGLKKRVVQVWFQNTRARERK [L14N], the abundance fitness was -1.14 ± 0.24.
As to RLRTTITPEQLEIKYQKYLLDSNPTRKMLDHIAHEVGLKKRVVQVWFQNTRARERK [L14K], the abundance fitness was -0.899 ± 0.16.
The figure for RLRTTITPEQLEIPYQKYLLDSNPTRKMLDHIAHEVGLKKRVVQVWFQNTRARERK [L14P] is -0.879 ± 0.24.
Take RLRTTITPEQLEIRYQKYLLDSNPTRKMLDHIAHEVGLKKRVVQVWFQNTRARERK [L14R]: the abundance fitness is -0.847 ± 0.089.
Take RLRTTITPEQLEISYQKYLLDSNPTRKMLDHIAHEVGLKKRVVQVWFQNTRARERK [L14S]: the abundance fitness is -0.763 ± 0.1.
Take RLRTTITPEQLEICYQKYLLDSNPTRKMLDHIAHEVGLKKRVVQVWFQNTRARERK [L14C]: the abundance fitness was -0.886 ± 0.18.
The figure for RLRTTITPEQLEIIYQKYLLDSNPTRKMLDHIAHEVGLKKRVVQVWFQNTRARERK [L14I] is -0.951 ± 0.27; for RLRTTITPEQLEIGYQKYLLDSNPTRKMLDHIAHEVGLKKRVVQVWFQNTRARERK [L14G] it is -0.956 ± 0.086.
Then RLRTTITPEQLEIDYQKYLLDSNPTRKMLDHIAHEVGLKKRVVQVWFQNTRARERK [L14D], with -0.568 ± 0.25; and RLRTTITPEQLEIEYQKYLLDSNPTRKMLDHIAHEVGLKKRVVQVWFQNTRARERK [L14E], with -0.791 ± 0.12.
On to RLRTTITPEQLEIHYQKYLLDSNPTRKMLDHIAHEVGLKKRVVQVWFQNTRARERK [L14H], for which the abundance fitness was -0.793 ± 0.26.
RLRTTITPEQLEILYNKYLLDSNPTRKMLDHIAHEVGLKKRVVQVWFQNTRARERK [Q16N]: the abundance fitness was -0.226 ± 0.21.
For RLRTTITPEQLEILYFKYLLDSNPTRKMLDHIAHEVGLKKRVVQVWFQNTRARERK [Q16F], the abundance fitness was 0.042 ± 0.22.
Regarding RLRTTITPEQLEILYKKYLLDSNPTRKMLDHIAHEVGLKKRVVQVWFQNTRARERK [Q16K], the abundance fitness is -0.106 ± 0.13.
In the case of RLRTTITPEQLEILYHKYLLDSNPTRKMLDHIAHEVGLKKRVVQVWFQNTRARERK [Q16H], the abundance fitness is -0.267 ± 0.19.
As to RLRTTITPEQLEILYMKYLLDSNPTRKMLDHIAHEVGLKKRVVQVWFQNTRARERK [Q16M], the abundance fitness came to 0.225 ± 0.11.
Then RLRTTITPEQLEILYDKYLLDSNPTRKMLDHIAHEVGLKKRVVQVWFQNTRARERK [Q16D], with -0.246 ± 0.13; and RLRTTITPEQLEILYAKYLLDSNPTRKMLDHIAHEVGLKKRVVQVWFQNTRARERK [Q16A], with 0.052 ± 0.086.
The figure for RLRTTITPEQLEILYSKYLLDSNPTRKMLDHIAHEVGLKKRVVQVWFQNTRARERK [Q16S] is -0.213 ± 0.1; for RLRTTITPEQLEILYTKYLLDSNPTRKMLDHIAHEVGLKKRVVQVWFQNTRARERK [Q16T] it is -0.021 ± 0.13; for RLRTTITPEQLEILYRKYLLDSNPTRKMLDHIAHEVGLKKRVVQVWFQNTRARERK [Q16R] it is -0.174 ± 0.082.
As to RLRTTITPEQLEILYYKYLLDSNPTRKMLDHIAHEVGLKKRVVQVWFQNTRARERK [Q16Y], the abundance fitness is -0.436 ± 0.16.
Regarding RLRTTITPEQLEILYPKYLLDSNPTRKMLDHIAHEVGLKKRVVQVWFQNTRARERK [Q16P], the abundance fitness is -1.08 ± 0.21.
Turning to RLRTTITPEQLEILYVKYLLDSNPTRKMLDHIAHEVGLKKRVVQVWFQNTRARERK [Q16V], the abundance fitness came to 0.357 ± 0.08.
Consider RLRTTITPEQLEILYWKYLLDSNPTRKMLDHIAHEVGLKKRVVQVWFQNTRARERK [Q16W], for which the abundance fitness is -0.615 ± 0.13.
Then RLRTTITPEQLEILYIKYLLDSNPTRKMLDHIAHEVGLKKRVVQVWFQNTRARERK [Q16I], with -0.073 ± 0.26; and RLRTTITPEQLEILYGKYLLDSNPTRKMLDHIAHEVGLKKRVVQVWFQNTRARERK [Q16G], with -0.113 ± 0.077.
On to RLRTTITPEQLEILYLKYLLDSNPTRKMLDHIAHEVGLKKRVVQVWFQNTRARERK [Q16L], for which the abundance fitness was 0.572 ± 0.096.
